± gives the uncertainty stated by the source.
B1: Zinc finger MYM-type protein 3, residues 405 to 444; numbered along this chain, Q14202 (parent)
chain: DATRCSICQKTGEVLHEVSNGSVVHRLCSDSCFSKFRANK

Variants of: B1
Assay: abundance fitness (aPCA) (normalised: wild type 0, dead -1); higher = more abundant; growth selection in yeast, the domain comes from the species named
Settings: Homo sapiens

Variant	abundance fitness
F33A	0.134 ± 0.055
F33L	0.256 ± 0.054
F33P	-0.186 ± 0.074
F33T	-0.072 ± 0.065
F33W	0.154 ± 0.06
F33G	-0.044 ± 0.05
F33R	0.106 ± 0.051
H25G	-0.164 ± 0.053
H25Y	-0.385 ± 0.097
H25S	-0.138 ± 0.056
H25E	0.205 ± 0.058
K35E	0.166 ± 0.056
K35F	0.052 ± 0.19
K35D	0.053 ± 0.076
K35H	-0.03 ± 0.084
K35N	0.03 ± 0.34
H16G	-0.306 ± 0.058
H16S	-0.319 ± 0.057
H16K	-0.158 ± 0.075
H16D	-0.379 ± 0.092
R4G	-0.219 ± 0.051
R4N	0.122 ± 0.081
R4P	-0.335 ± 0.064
L15H	0.017 ± 0.11

Variant	abundance fitness
L15K	0.079 ± 0.065
L15T	-0.141 ± 0.065
G12W	-0.639 ± 0.074
Q9Y	-0.014 ± 0.27
Q9L	-0.22 ± 0.058
Q9R	-0.288 ± 0.054
S29P	-0.487 ± 0.074
S29A	-0.363 ± 0.061
S29Q	-0.427 ± 0.087
R37T	0.043 ± 0.064
R37D	0.143 ± 0.08
R37P	-0.18 ± 0.079
R37F	-0.506 ± 0.088
R37L	-0.304 ± 0.058
I7W	-0.218 ± 0.061
I7K	-0.508 ± 0.098
I7L	-0.146 ± 0.054
I7M	-0.194 ± 0.072
I7G	-0.12 ± 0.051
A2C	0.305 ± 0.071
A2G	-0.186 ± 0.055
A2I	0.327 ± 0.11
T11N	-0.14 ± 0.089
T11I	-0.203 ± 0.23

Variant	abundance fitness
T11D	-0.104 ± 0.11
T11C	-0.519 ± 0.12
T11G	-0.127 ± 0.055
T11F	-0.221 ± 0.15
C5Q	-1.05 ± 0.089
E17I	-0.458 ± 0.091
E17G	-0.594 ± 0.055
E17Y	-1.02 ± 0.23
E17T	-0.089 ± 0.062
E17L	-0.764 ± 0.067
N39K	0.167 ± 0.083
N39M	0.048 ± 0.07
S22N	0.029 ± 0.094
S22D	-0.432 ± 0.1
N20Q	-0.004 ± 0.059
N20V	-0.296 ± 0.053
N20S	-0.069 ± 0.06
N20I	0.047 ± 0.096
N20K	-0.138 ± 0.072
N20H	-0.033 ± 0.07
R26P	-0.074 ± 0.066
R26C	-0.312 ± 0.1
R26G	-0.117 ± 0.053
R26E	-0.283 ± 0.063

Variant	abundance fitness
R26D	-0.606 ± 0.16
R26M	-0.12 ± 0.078
R26Q	0.097 ± 0.059
R26K	0.013 ± 0.074
S6M	-0.365 ± 0.093
S6N	-0.218 ± 0.093
C32R	-0.832 ± 0.071
C32D	-0.301 ± 0.1
C32G	-0.576 ± 0.054
C28Y	-0.85 ± 0.12
C28L	-0.886 ± 0.062
C28E	-0.576 ± 0.069
V23Q	0.181 ± 0.062
V23C	-0.937 ± 0.09
V23I	-0.087 ± 0.11
V23H	0.092 ± 0.082
V23F	-0.01 ± 0.077
V23K	0.114 ± 0.064
G21L	-0.298 ± 0.054
G21H	-0.235 ± 0.17
G21F	-0.366 ± 0.17
G21Y	-0.389 ± 0.089
G21D	0.016 ± 0.083
K10T	-0.277 ± 0.079

Variant	abundance fitness
K10N	-0.559 ± 0.17
K10Q	-0.208 ± 0.071
K10W	-0.479 ± 0.06
K10A	-0.293 ± 0.061
K10I	-0.417 ± 0.11
K10F	-0.595 ± 0.46
S19I	-0.11 ± 0.099
S19T	-0.009 ± 0.068
S19R	-0.078 ± 0.051
S19H	-0.268 ± 0.08
S19Q	0.059 ± 0.065
S19V	-0.135 ± 0.054
D1P	-0.32 ± 0.1
D1W	-0.504 ± 0.23
D1Q	-0.251 ± 0.12
D1T	0.303 ± 0.12
V24E	-0.03 ± 0.064
V24M	0.048 ± 0.065
V24T	-0.038 ± 0.061
V24I	-0.064 ± 0.089
S31H	-0.16 ± 0.093
S31G	0.055 ± 0.052
S31T	0.027 ± 0.082
S31C	-0.185 ± 0.18

Variant	abundance fitness
D30F	-0.632 ± 0.13
D30G	-0.269 ± 0.056
K40R	0.023 ± 0.068
K40A	-0.047 ± 0.11
K40P	-0.12 ± 0.17
S34E	0.32 ± 0.062
S34Q	0.382 ± 0.083
S34K	0.206 ± 0.068
E13W	-0.696 ± 0.062
E13M	-0.074 ± 0.069
E13T	-0.111 ± 0.07
E13C	-0.855 ± 0.078
E13D	-0.2 ± 0.091
C8I	-0.978 ± 0.2
C8N	-0.779 ± 0.15
C8D	-0.895 ± 0.15
C8V	-1.11 ± 0.067
C8L	-0.843 ± 0.078
V18C	-0.201 ± 0.075
V18F	-0.095 ± 0.095
V18G	-0.42 ± 0.055
V18K	-0.267 ± 0.064
V18P	-0.258 ± 0.06
V18L	-0.157 ± 0.053

Variant	abundance fitness
L27F	-0.019 ± 0.15
L27Y	-0.056 ± 0.1
L27I	-0.129 ± 0.12
L27S	-0.447 ± 0.062
V14Q	-0.142 ± 0.063
V14I	-0.029 ± 0.097
V14W	-0.561 ± 0.066
V14L	-0.344 ± 0.056
V14P	-0.057 ± 0.067
V14R	-0.374 ± 0.054
V14A	-0.173 ± 0.056
V14H	-0.667 ± 0.12
V14F	-0.068 ± 0.063
A38H	-0.524 ± 0.15
A38P	-0.354 ± 0.068
A38F	-0.259 ± 0.16
A38V	-0.233 ± 0.071
A38I	-0.215 ± 0.079
A38N	-0.461 ± 0.23
T3M	0.426 ± 0.061
F36E	0.029 ± 0.063
F36R	-0.236 ± 0.054
F36H	-0.053 ± 0.1
